B1: WT 1-1 (antibody, V domains shown)
VH: QVQLQQSGTELAKPGASVKFSCKASDYTFSTYWMYWIKQRPGQGLEWIGYINPSTGHTEYNQKFKDKATLTADKSSSTAYMQLNSLTSEDSAVYYCARRYYGPFAMDYWGQGTSVTVSS
VL: EIFLTQSPAIMSASPGEKVTMTCSASSSVSYAHWYQQKSGTSPKRWIYDSSKIASGIPVRFSGSGSGTSYSLTISSMEAEDAATYYCQNWSTNPYTFGGGTKLEIKR
B2: WT 1-7 (antibody, V domains shown)
VH: B1 VH with S30T, I51L
VL: B1 VL with S27T, I53L
B3: WT 1-4 (antibody, V domains shown)
VH: B1 VH with T55S, K63R, R99K
VL: B1 VL with S27T, S28T, I47L

Numbering of substitutions follows the chain as printed.

T1 sequence (P19429 whole entry): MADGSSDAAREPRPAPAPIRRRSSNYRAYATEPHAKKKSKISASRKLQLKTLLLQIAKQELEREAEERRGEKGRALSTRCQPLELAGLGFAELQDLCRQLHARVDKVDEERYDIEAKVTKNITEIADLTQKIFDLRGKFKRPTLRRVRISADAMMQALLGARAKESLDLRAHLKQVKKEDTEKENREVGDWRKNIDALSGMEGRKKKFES

The assay concerns the target T1, CTNI质控品重组抗原 (人心肌肌钙蛋白I, cTnI) (human, UniProt P19429 1-210, limits assumed).
T1 construct: also called CTNI质控品重组蛋白
The experiment in a line: AMC sensor (biolayer interferometry), antibody immobilised at 10 ug/ml, cTnI QC recombinant protein in serial dilution in PBST. On the technique in general: BLI is a label-free optical method that tracks binding on a fibre tip over time.
By Kd is commonly meant a measure of binding affinity in units of concentration. What is called koff is the rate constant with which the complex falls apart. The term kon denotes the second-order rate constant of association. B1: the Kd stood at 1.43 nM, the koff was 5.51e-05 s⁻¹ and the kon came to 38500 M⁻¹ s⁻¹.
On to B2, for which the Kd turned out to be 0.728 nM, the koff is 0.000132 s⁻¹ and the kon was found to be 182000 M⁻¹ s⁻¹.
Consider B3, for which the Kd turned out to be 1.04 nM, the koff came to 3.9e-05 s⁻¹ and the on-rate (kon) was determined as 37500 M⁻¹ s⁻¹.

Source of the values: CN111018977A (DONGGUAN PENGZHI BIOTECHNOLOGY CO LTD, dated 2020).
